Patent EP1451343B1

Target: mouse BRCA1 protein (mouse) (UniProt P48754)
Assay: cell-based or functional assay

Sequence of UniProt P48754 (P48754 whole entry): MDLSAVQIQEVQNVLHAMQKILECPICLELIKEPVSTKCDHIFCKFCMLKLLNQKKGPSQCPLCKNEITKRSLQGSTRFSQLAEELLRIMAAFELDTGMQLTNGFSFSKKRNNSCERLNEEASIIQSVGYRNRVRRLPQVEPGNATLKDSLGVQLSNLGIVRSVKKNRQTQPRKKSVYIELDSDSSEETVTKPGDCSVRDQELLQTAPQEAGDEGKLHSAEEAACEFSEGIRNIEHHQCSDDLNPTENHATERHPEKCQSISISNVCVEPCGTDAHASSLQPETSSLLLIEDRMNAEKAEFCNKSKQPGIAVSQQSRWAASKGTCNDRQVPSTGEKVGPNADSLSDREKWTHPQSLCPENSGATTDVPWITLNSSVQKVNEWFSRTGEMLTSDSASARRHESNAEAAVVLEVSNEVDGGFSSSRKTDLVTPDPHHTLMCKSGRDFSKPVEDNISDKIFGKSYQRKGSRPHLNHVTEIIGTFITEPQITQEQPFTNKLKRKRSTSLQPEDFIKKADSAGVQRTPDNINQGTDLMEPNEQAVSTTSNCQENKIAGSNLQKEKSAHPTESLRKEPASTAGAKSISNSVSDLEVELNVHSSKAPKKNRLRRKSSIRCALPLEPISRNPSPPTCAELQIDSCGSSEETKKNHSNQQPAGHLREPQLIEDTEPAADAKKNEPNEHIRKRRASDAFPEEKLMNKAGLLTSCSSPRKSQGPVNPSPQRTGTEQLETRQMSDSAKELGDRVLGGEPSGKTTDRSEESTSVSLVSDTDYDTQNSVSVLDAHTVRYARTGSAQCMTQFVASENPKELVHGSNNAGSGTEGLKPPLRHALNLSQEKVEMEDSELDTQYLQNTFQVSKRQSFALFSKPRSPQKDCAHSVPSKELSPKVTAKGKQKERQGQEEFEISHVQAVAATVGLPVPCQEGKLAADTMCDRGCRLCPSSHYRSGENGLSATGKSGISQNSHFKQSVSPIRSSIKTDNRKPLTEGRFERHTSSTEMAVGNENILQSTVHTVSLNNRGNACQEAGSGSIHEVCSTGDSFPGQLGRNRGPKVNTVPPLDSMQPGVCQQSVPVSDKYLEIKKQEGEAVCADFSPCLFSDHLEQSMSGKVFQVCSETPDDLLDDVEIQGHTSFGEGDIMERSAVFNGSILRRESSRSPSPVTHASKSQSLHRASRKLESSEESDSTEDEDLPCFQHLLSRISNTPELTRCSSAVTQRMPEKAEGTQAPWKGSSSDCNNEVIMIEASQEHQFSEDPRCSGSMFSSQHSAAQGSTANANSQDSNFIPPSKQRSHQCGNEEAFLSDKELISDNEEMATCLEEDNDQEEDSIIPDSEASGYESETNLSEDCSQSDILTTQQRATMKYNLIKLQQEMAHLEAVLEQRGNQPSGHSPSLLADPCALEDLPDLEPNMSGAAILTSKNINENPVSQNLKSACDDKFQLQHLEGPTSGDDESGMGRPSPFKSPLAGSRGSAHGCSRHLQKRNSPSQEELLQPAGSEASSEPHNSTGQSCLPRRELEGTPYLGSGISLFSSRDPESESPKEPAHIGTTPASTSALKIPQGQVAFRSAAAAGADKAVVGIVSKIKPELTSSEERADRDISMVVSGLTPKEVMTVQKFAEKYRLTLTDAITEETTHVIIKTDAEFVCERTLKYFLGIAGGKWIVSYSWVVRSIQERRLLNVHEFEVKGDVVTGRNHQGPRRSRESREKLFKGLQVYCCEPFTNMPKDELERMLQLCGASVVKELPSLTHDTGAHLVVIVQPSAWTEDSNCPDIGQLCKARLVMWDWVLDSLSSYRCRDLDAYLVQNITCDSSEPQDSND

anti-FANCD2 foci co-localized with regions of intense anti-BRCA1 staining (20 pachytene nuclei of mouse spermatocytes): 65%
Substance: mouse FANCD2 protein (from UniProt Q80V62 1-1450)
